Blank lines part the entries; values can stand above or below the substance they belong to.
What was measured:
[1] = biological target: human CD28, full length, on transfected HEK293 cells (human) (UniProt P10747); assay: flow cytometry, Fc fusion at 66.6 nM on HEK293 cells transfected with CD28
[2] = biological target: human PD-L1, full length, on transfected HEK293 cells (human) (UniProt Q9NZQ7); assay: flow cytometry, Fc fusion at 22.2 nM on HEK293 cells transfected with PD-L1
[3] = biological target: human CTLA4, full length, on transfected HEK293 cells (human) (UniProt P16410); assay: flow cytometry, Fc fusion at 66.6 nM on HEK293 cells transfected with CTLA4
CD28 (human) = CD28 (human) (UniProt P10747); assay: flow cytometry on HEK293 cells transfected with CD28
PD-L1 (human) = PD-L1 (human) (UniProt Q9NZQ7); assay: flow cytometry on HEK293 cells transfected with PD-L1
CTLA4 (human) = CTLA4 (human) (UniProt P16410); assay: flow cytometry on HEK293 cells transfected with CTLA4
[4] = biological target: human CD28, full-length, expressed on transfected Expi293 cells (human) (UniProt P10747); assay: flow cytometry on CD28-expressing Expi293 cells
[5] = biological target: human PD-L1, full-length, expressed on transfected Expi293 cells (human) (UniProt Q9NZQ7); assay: flow cytometry on PD-L1-expressing Expi293 cells
[6] = biological target: human CTLA-4, full-length, expressed on transfected Expi293 cells (human) (UniProt P16410); assay: flow cytometry on CTLA-4-expressing Expi293 cells
[7] = biological target: CD80 (Homo sapiens (Human)) (UniProt P33681); assay: flow cytometry, cells expressing CD80
[8] = biological target: PD-1 (Homo sapiens (Human)) (UniProt Q15116); assay: flow cytometry, cells expressing PD-1

Sequence of human CTLA4, full length, on transfected HEK293 cells (human) (P16410 36-223 limits assumed): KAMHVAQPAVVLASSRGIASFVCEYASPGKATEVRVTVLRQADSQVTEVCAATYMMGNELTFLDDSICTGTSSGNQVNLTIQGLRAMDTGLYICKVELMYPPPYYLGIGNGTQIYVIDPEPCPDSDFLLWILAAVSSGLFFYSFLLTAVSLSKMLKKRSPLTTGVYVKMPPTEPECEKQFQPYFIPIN
Sequence of CTLA4 (human) (P16410 36-223 limits assumed): as above
Sequence of human PD-L1, full-length, expressed on transfected Expi293 cells (human) (Q9NZQ7 19-290 limits assumed): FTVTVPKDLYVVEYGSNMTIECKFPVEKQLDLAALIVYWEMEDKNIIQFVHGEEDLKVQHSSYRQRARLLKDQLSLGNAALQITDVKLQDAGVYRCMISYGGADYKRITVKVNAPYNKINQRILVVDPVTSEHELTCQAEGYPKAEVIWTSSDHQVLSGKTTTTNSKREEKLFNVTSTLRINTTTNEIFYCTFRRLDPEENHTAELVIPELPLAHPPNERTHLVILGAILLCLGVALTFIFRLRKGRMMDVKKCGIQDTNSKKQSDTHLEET
Sequence of PD-L1 (human) (Q9NZQ7 19-290 limits assumed): as above
Sequence of human PD-L1, full length, on transfected HEK293 cells (human) (Q9NZQ7 19-290 limits assumed): as above
Sequence of CD80 IgV Fc (wild-type CD80 IgV domain fused to Fc) (P33681 35-141 limits assumed): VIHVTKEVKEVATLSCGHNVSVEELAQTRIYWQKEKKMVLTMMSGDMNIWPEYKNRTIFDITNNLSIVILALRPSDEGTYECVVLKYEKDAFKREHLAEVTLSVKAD
Sequence of human CTLA-4, full-length, expressed on transfected Expi293 cells (human) (P16410 36-223 limits assumed): as the sequence (P16410 36-223 limits assumed) above

Substance: CD80 IgV-Fc P51A/A71D (from UniProt P33681 35-141) (Fc fusion)
MFI at 66.6 nM (CD28 (human)): 4260 MFI
MFI at 22.2 nM (PD-L1 (human)): 5530 MFI

Substance: CD80 IgV-Fc S44P/A71D (from UniProt P33681 35-141) (Fc fusion)
MFI at 66.6 nM (CD28 (human)): 2740 MFI
MFI at 66.6 nM (CTLA4 (human)): 8840 MFI
MFI at 22.2 nM (PD-L1 (human)): 6310 MFI

Substance: CD80 variant N63S/L70Q/A91G/T120S/T130A ECD-Fc fusion (from UniProt P33681 35-242)
MFI [4]: 124 MFI
MFI [5]: 6 MFI
MFI [6]: 165 MFI

Substance: variant PD-L1 ECD-Fc G15A, I36T, V129D (from UniProt Q9NZQ7 19-238) (Fc fusion)
MFI at 20 nM [7]: 136
MFI at 20 nM [8]: 114

Substance: CD80 variant L70Q/A91G/T110A/T120S/T130A ECD-Fc fusion (from UniProt P33681 35-242)
MFI [6]: 14 MFI

Substance: CD80 variant IgV-Fc E35D/D46V/L85Q (from UniProt P33681 35-141) (Fc fusion)
MFI at 66.6 nM [1]: 7510 MFI
MFI at 22.2 nM [2]: 38100 MFI
MFI at 66.6 nM [3]: 86000 MFI

Substance: CD80 IgV-Fc T57I (from UniProt P33681 35-141) (Fc fusion)
MFI at 66.6 nM (CD28 (human)): 23600 MFI
MFI at 66.6 nM (CTLA4 (human)): 394000 MFI
MFI at 22.2 nM (PD-L1 (human)): 3380 MFI

Substance: CD80 IgV-Fc T13R/C16R/L70Q/A71D (from UniProt P33681 35-141) (Fc fusion)
MFI at 66.6 nM (CD28 (human)): 16100 MFI
MFI at 66.6 nM (CTLA4 (human)): 197000 MFI
MFI at 22.2 nM (PD-L1 (human)): 9520 MFI

Substance: CD80 IgV-Fc A71D (from UniProt P33681 35-141) (Fc fusion)
MFI at 66.6 nM (CD28 (human)): 16800 MFI
MFI at 66.6 nM (CTLA4 (human)): 220000 MFI
MFI at 22.2 nM (PD-L1 (human)): 29600 MFI

Substance: CD80 IgV-Fc L72P/T79I (from UniProt P33681 35-141) (Fc fusion)
MFI at 66.6 nM (CD28 (human)): 3400 MFI
MFI at 66.6 nM (CTLA4 (human)): 50200 MFI
MFI at 22.2 nM (PD-L1 (human)): 6020 MFI

Substance: Fc Control
MFI at 20 nM [7]: 132
MFI at 20 nM [8]: 59

Substance: variant PD-L1 ECD-Fc L35P, I36S, M97L, K111E (from UniProt Q9NZQ7 19-238) (Fc fusion)
MFI at 20 nM [7]: 155
MFI at 20 nM [8]: 190

Substance: CD80 variant IgV-Fc Q27L/E35D/M47I/T57I/L70Q/E88D (from UniProt P33681 35-141) (Fc fusion)
MFI at 22.2 nM [2]: 1050 MFI
MFI at 66.6 nM [3]: 59800 MFI

Results, then the substance that gave them:

MFI at 66.6 nM [1]: 15900 MFI
MFI at 22.2 nM [2]: 3400 MFI
MFI at 66.6 nM [3]: 76900 MFI
Substance: CD80 variant IgV-Fc M47V/I69F/A71D/V83I (from UniProt P33681 35-141) (Fc fusion)

MFI at 66.6 nM [1]: 4900 MFI
MFI at 22.2 nM [2]: 19500 MFI
MFI at 66.6 nM [3]: 59800 MFI
Substance: CD80 variant IgV-Fc T41S/T57I/L70R (from UniProt P33681 35-141) (Fc fusion)

MFI [4]: 39 MFI
MFI [5]: 9 MFI
Substance: CD80 variant A91G/S103P ECD-Fc fusion (from UniProt P33681 35-242)

MFI at 20 nM [7]: 128
MFI at 20 nM [8]: 120
Substance: variant PD-L1 ECD-Fc I36T, M97L, A103V, Q155H (from UniProt Q9NZQ7 19-238) (Fc fusion)

MFI at 20 nM [7]: 47400
MFI at 20 nM [8]: 104
Substance: variant PD-L1 ECD-Fc M18I, I36T, E53G, M97L, K144E, E199G, V207A (from UniProt Q9NZQ7 19-238) (Fc fusion)

MFI at 20 nM [7]: 68700
MFI at 20 nM [8]: 3500
Substance: variant PD-L1 ECD-Fc I36S, M41K, M97L, K144Q, R195G, E200K, H202Q, L206F (Fc fusion)

MFI at 66.6 nM [1]: 1500 MFI
MFI at 22.2 nM [2]: 1850 MFI
MFI at 66.6 nM [3]: 2970 MFI
Substance: CD80 variant IgV-Fc V22L/E35D/M43L/A71G/D76H (from UniProt P33681 35-141) (Fc fusion)

MFI [4]: 8 MFI
MFI [5]: 5 MFI
Substance: CD80 variant K36E/I67T/L70Q/A91G/T120S/T130A/N152T ECD-Fc fusion (from UniProt P33681 35-242)

MFI at 66.6 nM [1]: 5480 MFI
MFI at 66.6 nM [3]: 59000 MFI
Substance: CD80 variant IgV-Fc E23G/A26S/E35D/T62N/A71D/L72V/L85M (from UniProt P33681 35-141) (Fc fusion)

MFI at 66.6 nM (CD28 (human)): 21300 MFI
MFI at 22.2 nM (PD-L1 (human)): 2420 MFI
Substance: CD80 IgV-Fc E35D/T57I/L70Q/A71D (from UniProt P33681 35-141) (Fc fusion)

MFI at 66.6 nM [1]: 1620 MFI
MFI at 22.2 nM [2]: 1770 MFI
MFI at 66.6 nM [3]: 20700 MFI
Substance: CD80 IgV Fc (wild-type CD80 IgV domain fused to Fc) (from UniProt P33681 35-141) (Fc fusion)

Reference: patent US20200040059A1
